The test deals with ROR2 mutant with the deletion of the d-Kringle region, flag-tagged (B4) (human, UniProt Q01974 34-943, limits assumed). Nature of the test: western blot of lysate of transfected 293T cells. The text has this:
In order to find the epitope bound by the B16 chimeric antibody, flag-tagged mutant plasmids (B1-B8) from different regions of the ROR2 protein were constructed (The Flag tag is a polypeptide fragment composed of eight hydrophilic amino acids […], which can be fused with proteins without occupying protein epitopes or structural domains, avoiding affecting the function, secretion, and transport properties of the protein. The flag tag is used to mark the target protein, if the tag is expressed, the target protein will also be expressed). The plasmid used is pcDNA3.0 plasmid. The full-length sequence of human-derived ROR2 protein includes SP region, Ig-like region, CRD region, Kringle region, Kinase region, S/T1 region, Pro region and S/T2 region. Each part and the corresponding function can refer to Debebe Z, Rathmell W K. Ror2 as a Therapeutic Target in Cancer [J]. Pharmacology & Therapeutics, 2015, 150:143-148. […]
After 48 hours of expression, the cells transfected with mutant plasmids in different regions of ROR2 were lysed. By western blot, the expression of ROR2 protein was detected with B16 chimeric antibody, Flag antibody and Santa Cruz's ROR2 antibody (Cat. No.: sc-374174).
On the technique in general: A western blot detects proteins with antibodies after separation by electrophoresis.

The record followed here is patent publication US20210380688A1 (SHENZHEN UNIVERSITY, published 2021).

Chain of ROR2 mutant with the deletion of the d-Kringle region, flag-tagged (B4) (Q01974 other isoform, or with tags, fused parts or gaps mutant limits assumed): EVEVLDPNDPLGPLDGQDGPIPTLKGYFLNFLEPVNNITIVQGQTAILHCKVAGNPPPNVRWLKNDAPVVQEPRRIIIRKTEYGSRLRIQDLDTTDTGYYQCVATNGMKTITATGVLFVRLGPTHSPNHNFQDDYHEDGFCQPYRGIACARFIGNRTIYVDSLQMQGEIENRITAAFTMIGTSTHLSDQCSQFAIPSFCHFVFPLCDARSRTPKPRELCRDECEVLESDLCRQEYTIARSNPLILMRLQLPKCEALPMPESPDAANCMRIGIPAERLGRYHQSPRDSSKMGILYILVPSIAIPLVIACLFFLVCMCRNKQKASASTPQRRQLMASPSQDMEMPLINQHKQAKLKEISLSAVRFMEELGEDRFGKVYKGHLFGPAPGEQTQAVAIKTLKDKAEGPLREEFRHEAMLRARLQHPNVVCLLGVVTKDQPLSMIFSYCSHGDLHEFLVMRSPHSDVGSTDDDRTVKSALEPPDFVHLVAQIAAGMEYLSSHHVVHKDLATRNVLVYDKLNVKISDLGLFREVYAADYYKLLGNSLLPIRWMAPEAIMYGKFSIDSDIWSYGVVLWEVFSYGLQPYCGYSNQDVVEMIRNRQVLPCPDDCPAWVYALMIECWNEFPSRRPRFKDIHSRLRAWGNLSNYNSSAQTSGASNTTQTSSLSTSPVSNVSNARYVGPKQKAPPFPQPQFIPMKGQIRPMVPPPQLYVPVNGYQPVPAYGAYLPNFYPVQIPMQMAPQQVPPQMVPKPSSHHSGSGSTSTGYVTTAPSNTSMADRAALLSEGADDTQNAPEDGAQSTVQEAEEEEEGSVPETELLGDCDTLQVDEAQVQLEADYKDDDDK

B1: B16 chimeric antibody (antibody, human IgG1, kappa, V domains shown)
VH: QLQLQQSGPELVKPGASVRMSCKAAGYTFTSYLMHWVKQRPGQDLEWIGYINPYNDGTKYNEKFKDKATLTSDKSSSTVYMELSSLTSEDSAVYYCARSDVYYGVRFAYWGQGTLVTVSA
VL: DIVLTQSPAIMSASPGEKVTMTCSASSSVTYTYWYQQKPGSSPRLLIYDTSNLASGVPVRFSGSGSGTSYSLTISRMEAEDAATYYCQQWSSYPFTFGSGTKLEIKR
notes: also called anti-ROR2 monoclonal antibody B16 chimeric antibody; B16 antibody
On to B1, for which the binding result is recorded as “no binding”.
